Assay results as given in US8541373B2, “BChE albumin fusions for the treatment of cocaine abuse” (priority 2009, dated 2013).
Where “and” joins values, the source holds several entries; their conditions need not be identical. Equal entries are not always repeated.

Test system: cocaine
Test: AlbuBChE PK/PD analysis, sigmoidal inhibitory effect Emax model (cocaine AUC)
Source text: AlbuBChE PK/PD relationship was defined using the computer software WinNonlin Professional (Version 4.0.1 Pharsight Corporation, USA). Specifically the direct sigmoidal inhibitory Effect Emax model was use in which maximum effect (Emax) as measured by cocaine AUC was assumed at AlbuBChE concentration of zero. The model equation can be described as follows: Inhibitory Effect Sigmoid Emax, C=0 at Emax, C=infinity at Eo E=Emax−(Emax−E0)*(C**Gamma/(C**Gamma+EC50**Gamma))
The PD parameter used in the analysis was cocaine AUC. PK parameters used in the model were AlbuBChE plasma concentrations at 2, 48, 96, 120, and 240 hr post-AlbuBChE dose. Due to the fact that AlbuBChE concentration was not measured at 2 hr post-AlbuBChE dose, the concentration at 3 hr postdose was used in the analysis with the assumptions that AlbuBChE concentration at 3 hr post AlbuBChE dose may reflect AlbuBChE conc. at 2 hr post AlbuBChE dose.

## AlbuBChE
0.2 mg/kg IM, time 2 hr
  AlbuBChE Conc. used in PK/PD analysis, individual animals: 107 ng/mL and 257 ng/mL and 196 ng/mL
0.2 mg/kg IM, time 48 hr
  AlbuBChE Conc. used in PK/PD analysis, individual animals: 0 ng/mL and 66.4 ng/mL and 80.7 ng/mL
0.2 mg/kg IM, time 96 hr
  AlbuBChE Conc. used in PK/PD analysis, individual animals: 0 ng/mL (2×) and 30 ng/mL
0.2 mg/kg IM, time 120 hr
  AlbuBChE Conc. used in PK/PD analysis, individual animals: 0 ng/mL
0.2 mg/kg IM, time 240 hr
  AlbuBChE Conc. used in PK/PD analysis, individual animals: 0 ng/mL
0.2 mg/kg IM, cocaine 1 mg/kg IV 2 hr post-AlbuBChE
  Cocaine AUC(0-t), individual animals: 13317 ng·min/mL and 10812 ng·min/mL and 11504 ng·min/mL
0.2 mg/kg IM, cocaine 1 mg/kg IV 48 hr post-AlbuBChE
  Cocaine AUC(0-t), individual animals: 8550 ng·min/mL and 7315 ng·min/mL and 7276 ng·min/mL
0.2 mg/kg IM, cocaine 1 mg/kg IV 96 hr post-AlbuBChE
  Cocaine AUC(0-t), individual animals: 13936 ng·min/mL and 8978 ng·min/mL and 10522 ng·min/mL
0.2 mg/kg IM, cocaine 1 mg/kg IV 120 hr post-AlbuBChE
  Cocaine AUC(0-t), individual animals: 11293 ng·min/mL and 11428 ng·min/mL and 12111 ng·min/mL
0.2 mg/kg IM, cocaine 1 mg/kg IV 240 hr post-AlbuBChE
  Cocaine AUC(0-t), individual animals: 13669 ng·min/mL and 12762 ng·min/mL and 14649 ng·min/mL
1 mg/kg IM, time 2 hr
  AlbuBChE Conc. used in PK/PD analysis, individual animals: 1362 ng/mL and 918 ng/mL and 1777 ng/mL
1 mg/kg IM, time 48 hr
  AlbuBChE Conc. used in PK/PD analysis, individual animals: 389 ng/mL and 363 ng/mL and 264 ng/mL
1 mg/kg IM, time 96 hr
  AlbuBChE Conc. used in PK/PD analysis, individual animals: 87 ng/mL and 132 ng/mL and 75 ng/mL
1 mg/kg IM, time 120 hr
  AlbuBChE Conc. used in PK/PD analysis, individual animals: 36 ng/mL and 72 ng/mL and 38 ng/mL
1 mg/kg IM, time 240 hr
  AlbuBChE Conc. used in PK/PD analysis, individual animals: 0 ng/mL
1 mg/kg IM, cocaine 1 mg/kg IV 2 hr post-AlbuBChE
  Cocaine AUC(0-t), individual animals: 6597 ng·min/mL and 9746 ng·min/mL and 7297 ng·min/mL
1 mg/kg IM, cocaine 1 mg/kg IV 48 hr post-AlbuBChE
  Cocaine AUC(0-t), individual animals: 6025 ng·min/mL and 5033 ng·min/mL and 6839 ng·min/mL
1 mg/kg IM, cocaine 1 mg/kg IV 96 hr post-AlbuBChE
  Cocaine AUC(0-t), individual animals: 9166 ng·min/mL and 9925 ng·min/mL and 11042 ng·min/mL
1 mg/kg IM, cocaine 1 mg/kg IV 120 hr post-AlbuBChE
  Cocaine AUC(0-t), individual animals: 10451 ng·min/mL and 11561 ng·min/mL and 12568 ng·min/mL
1 mg/kg IM, cocaine 1 mg/kg IV 240 hr post-AlbuBChE
  Cocaine AUC(0-t), individual animals: 14533 ng·min/mL and 13998 ng·min/mL and 14560 ng·min/mL
5 mg/kg IM, time 2 hr
  AlbuBChE Conc. used in PK/PD analysis, individual animals: 3740 ng/mL and 9627 ng/mL and 4923 ng/mL
5 mg/kg IM, time 48 hr
  AlbuBChE Conc. used in PK/PD analysis, individual animals: 1330 ng/mL and 2644 ng/mL and 1605 ng/mL
5 mg/kg IM, time 96 hr
  AlbuBChE Conc. used in PK/PD analysis, individual animals: 415 ng/mL and 733 ng/mL and 455 ng/mL
5 mg/kg IM, time 120 hr
  AlbuBChE Conc. used in PK/PD analysis, individual animals: 217 ng/mL and 326 ng/mL and 224 ng/mL
5 mg/kg IM, time 240 hr
  AlbuBChE Conc. used in PK/PD analysis, individual animals: 58 ng/mL and 71 ng/mL and 63 ng/mL
5 mg/kg IM, cocaine 1 mg/kg IV 2 hr post-AlbuBChE
  Cocaine AUC(0-t), individual animals: 4594 ng·min/mL and 3039 ng·min/mL and 2234 ng·min/mL
5 mg/kg IM, cocaine 1 mg/kg IV 48 hr post-AlbuBChE
  Cocaine AUC(0-t), individual animals: 3323 ng·min/mL and 2628 ng·min/mL and 3095 ng·min/mL
5 mg/kg IM, cocaine 1 mg/kg IV 96 hr post-AlbuBChE
  Cocaine AUC(0-t), individual animals: 6428 ng·min/mL and 6887 ng·min/mL and 6556 ng·min/mL
5 mg/kg IM, cocaine 1 mg/kg IV 120 hr post-AlbuBChE
  Cocaine AUC(0-t), individual animals: 7954 ng·min/mL and 9620 ng·min/mL and 10560 ng·min/mL
5 mg/kg IM, cocaine 1 mg/kg IV 240 hr post-AlbuBChE
  Cocaine AUC(0-t), individual animals: 11173 ng·min/mL and 13745 ng·min/mL and 13937 ng·min/mL
Cynomolgus monkeys, sigmoidal inhibitory effect Emax model, PD parameter cocaine AUC
  AlbuBChE serum concentration that may result in 50% decrease in cocaine concentration (EC50): ~0.6 µg/mL
